Data set [1] can be described thus: Screen: transfer of malonyl-moieties from Mal-CoA to N-(2-mercaptoethyl)-hexanamide (enzyme-coupled assay). The format is biochemical, murine. The following applies: fixed substrate and acceptor concentrations; FIG. 4. The procedure:
Specific transfers from Mal-CoA to N-(2-mercaptoethyl)-hexanamide were analyzed at fixed substrate and acceptor concentrations. […] Shown error bares reflect standard deviations from triplicates.
Further engineered mutants were expressed, purified and analyzed, building up on the previous studies. A screen for fifty different exemplary mutants was performed analyzing the transfer of malonyl-moieties from CoA to N-(2-mercaptoethyl)-hexanamide. Four solutions were prepared as 4× concentrated stocks in the assay buffer. Solution 1 contained the acyltransferases at the concentration range of 0.01 μM-10 μM and were arranged in four groups depending on their individual turnover rates to achieve good signal to noise ratios. Solution 2 contained the enzyme-coupled system including 8 mM α-ketoglutaric acid, 1.6 mM NAD+, 1.6 mM TPP and 60 mU/100 μL αKGDH. Solution 3 contained a fixed concentration of malonyl (Mal)-CoA at 200 μM and solution 4 contained the acceptor N-(2-mercaptoethyl)-hexanamide at 200 μM. 5 μL of Solutions 1-3 were pipetted into a 384-well Small Volume HiBase Microplates (Greiner Bio-one) and mixed manually. The reactions were started by adding 5 μL of solution 4 with an automatic multichannel pipette (ClipTip). The reaction progress was recorded using the following settings: 348-20 nm; emission: 476-20 nm; gain: 1700; focal height: 12.1 mm; flashes: 10; orbital averaging: off. […]

Data set [2] in a line: In-depth kinetics: thiol quantification assay (ThioGlo), malonyl transfer from non-CoA substrate to ACP. The format is biochemical, murine. As for the experimental part: (§1) Y-axes show turnover in s^−1 and x-axes show substrate concentration in μM. Apparent kinetic parameters at a fixed acceptor concentration of ACP of 85 μM were determined by fitting the data points with the Michaelis-Menten function. Shown error bares reflect standard deviations from triplicates.
To verify the re-engineered mutant activity, having a substrate specificity altered from natural CoA substrates to non-CoA substrates, an alternative method to quantify specific turnover rates for non-CoA substrates was established. Such non-CoA substrates are not detectable by the enzyme-coupled assay. We used a thiol-sensitive fluorophore (ThioGlo4; Yi et al. 2009) to quantify the released free thiol groups from the substrate 3-Oxo-3-[[2-[(1-oxohexyl)amino]ethyl]thio]-propanoic acid after the enzyme-specific transfer of the malonyl moiety to a non-thiol acceptor. Briefly, three solutions were prepared in either a twofold concentration or as 4× concentrated stocks in the assay buffer. […] Free thiols were detected by adding 10 μL of 120 μM ThioGlo in the buffer 250 mM potassium phosphate, 1 mM EDTA and 10% glycerol, mixing and fluorescence detection at the microplate reader (ClarioStar, BMG labtech) using the following settings: 400-20 nm; emission: 465-20 nm; gain: 700; focal height: 12.5 mm; flashes: 20; orbital averaging: off. […]
(§2) In-depth kinetic analysis results allowing a comparison of enzyme kinetic parameters for the transfer of malonyl-moieties from either Mal-CoA or 3-Oxo-3-[[2-[(1-oxohexyl)amino]ethyl]thio]-propanoic acid to the ACP are shown for a representative mutant (A35) herein. Enzyme kinetics were determined with the established enzyme-coupled assay for Mal-CoA kinetics and a variation of the new thiol quantifying assay using ThioGlo.
A variation of the thiol quantification assay in Example 5 was established to be able to separate the liberated thiol groups from 3-Oxo-3-[[2-[(1-oxohexyl)amino]ethyl]thio]-propanoic acid after acyl-transfer from the thiol groups of the acceptor ACP. […]

Data set [3] in a line: In-depth kinetics: enzyme-coupled assay, malonyl transfer from Mal-CoA to ACP. Format: biochemical, murine. The following applies: substrate A (Mal-CoA). The procedure:
as §1
(§3) An enzyme-coupled assay was performed to analyze the transfer of acyl-moieties from CoA to the ACP. Four solutions were prepared as 4× concentrated stocks in the assay buffer. Solution 1 contained the acyltransferase at the concentration range of 0.01 μM-10 μM, depending on the transfer kinetics to achieve good signal to noise ratios. Solution 2 contained the enzyme-coupled system including 8 mM α-ketoglutaric acid, 1.6 mM NAD+, 1.6 mM TPP and 60 mU/100 μL αKGDH. Solution 3 contained the methylmalonyl (MMal)-CoA at concentrations between 0.1 μM and 1,000 μM and solution 4 contained the ACP from murine FAS as a standalone protein at 240 μM. 5 μL of Solutions 1-3 were pipetted into a 384-well Small Volume HiBase Microplates (Greiner Bio-one) and mixed manually. The reactions were started by adding solution 4 with the dispenser system of the microplate reader (ClarioStar, BMG labtech). The reaction progress was recorded using the following settings: 348-20 nm; emission: 476-20 nm; gain: 1500; focal height: 11.9 mm; flashes: 17; orbital averaging: off.
as §2
Enzyme-coupled assay was performed as described in Example 3 with 4× concentrated stocks. The enzyme concentration of A35 in Solution 1 was 4.2 μM, the substrate concentrations of Mal-CoA in Solutions 3 were between 8-400 μM and the acceptor concentration of ACP in Solution 4 was 340 μM.

For data set [4] the following is noted: Comparative data from Rittner et al. 2018; cited from earlier work.
Data set [5] in a line: Enzyme-coupled assay: transfer of acyl-moieties from MMal-CoA to the ACP. The following applies: substrate MMal-CoA, acceptor ACP from murine FAS. The format is biochemical. The procedure:
as §3

[6] abbreviates: substrate B (3-Oxo-3-[[2-[(1-oxohexyl)amino]ethyl]thio]-propanoic acid), acceptor ACP fixed at 85 μM, apparent parameters.
[7] abbreviates: acceptor ACP fixed at 85 μM, apparent parameters.

Where a chain is given by its changes, count along the chain named. In names and notes the source's numbering stands. Where two headings read alike, the source gives them in different places.

B1: Mutant A48: engineered murine acyltransferase, mutations T161A F184E R286D K186D D160R (protein)
chain: NKRPLWFICSGMGTQWRGMGLSLMRLDSFRESILRSDEAVKPLGVKVSDLLLSTDERTFDDIVHAFVSLTAIQIALIDLLTSVGLKPDGIIGHSLGEVACGYADGCLSQREAVLAAYWRGQCIKDAHLPPGSMAAVGLSWEECKQRCPAGVVPACHNSERAVTISGPQAAVNEFVEQLKQEGVEADEVRTGGLAFHSYFMEGIAPTLLQALKKVIREPRPRSARWLSTSIPEAQWQSSLARTSSAEYNVNNLVSPVLFQEALWHIPEHAVVLEIAPHALLQAVLKDGVKSSCTIIPLMKRDHKDNLEFFLTNLGKVHLT
On to B1, for which the “turnover rate, transfer from Mal-CoA to N-(2-mercaptoethyl)-hexanamide” value in data set [1] was “did not give a detectable signal”.

B2: Mutant A35: engineered murine acyltransferase, mutations T161L F184L R286L K186D R300D (protein)
chain: B1 chain with R160D, A161L, E184L, D286L, R300D
On to B2, for which the Km in data set [2] (setting [6]) was 30 µM; in data set [3] (setting [7]) it was 25 µM. The kcat in data set [2] (setting [6]) is 5.75 s⁻¹; in data set [3] (setting [7]), 0.01 s⁻¹. Also, the Factor in data set [2] (substrate B (non-CoA substrate), acceptor ACP, kcat/Km relative to substrate A (Mal-CoA)) was found to be 467; in data set [3] (acceptor ACP, kcat/Km relative to substrate A), 1.

B3: (WT): wild type murine FAS malonyl-acetyl-transferase (MAT), no mutation (protein, listed as Mus musculus)
chain: B1 chain with R160D, A161T, E184F, D186K, D286R
B3: the Km in data set [4] was 0.62 µM; in data set [5] it was 0.53 µM. Further, the results for the turnover number (kcat) in data set [4] and in data set [5] were 4.000 s⁻¹ and 1.297 s⁻¹, respectively.

These data come from patent publication US20260218138A1, “ENGINEERED ACYLTRANSFERASES HAVING ALTERED SUBSTRATE SPECIFICITY” (KEZBIOSOLUTIONS GMBH, priority 2022, published 2026).
